These results are taken from publication doi:10.1101/790931.

In assay [1] the target is FITC-labelled P. aeruginosa TolB[22-34] peptide (Pseudomonas aeruginosa). In words: fluorescence polarisation.
The target in assay [2] is T1, C-terminal domain of E. coli TolA (E. coli).
T1 sequence (P19934 whole entry, looked up): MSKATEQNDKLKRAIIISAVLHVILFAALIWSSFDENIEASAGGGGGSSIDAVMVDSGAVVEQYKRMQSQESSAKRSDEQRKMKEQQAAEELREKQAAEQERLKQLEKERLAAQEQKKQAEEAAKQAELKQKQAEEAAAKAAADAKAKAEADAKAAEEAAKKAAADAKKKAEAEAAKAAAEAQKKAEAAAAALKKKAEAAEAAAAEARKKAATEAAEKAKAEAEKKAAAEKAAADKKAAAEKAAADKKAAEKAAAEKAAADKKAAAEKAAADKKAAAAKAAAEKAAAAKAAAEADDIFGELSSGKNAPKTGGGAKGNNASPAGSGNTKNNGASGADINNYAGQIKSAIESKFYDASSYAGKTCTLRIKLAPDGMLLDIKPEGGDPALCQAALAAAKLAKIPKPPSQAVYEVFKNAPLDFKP
The experiment in a line: ITC. (In general: ITC needs no label: the signal is the heat of the interaction.)

No end group written: not given here.

Chain of C-terminal domain of Pseudomonas aeruginosa TolA (TolA^224-347) (P50600 224-347): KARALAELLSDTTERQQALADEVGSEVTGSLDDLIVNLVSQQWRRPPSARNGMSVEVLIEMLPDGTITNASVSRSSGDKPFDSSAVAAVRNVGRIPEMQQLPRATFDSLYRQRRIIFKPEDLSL
Chain of P. aeruginosa TolA (residues 224-344) lacking its short C-terminal α-helix (P50600 224-344): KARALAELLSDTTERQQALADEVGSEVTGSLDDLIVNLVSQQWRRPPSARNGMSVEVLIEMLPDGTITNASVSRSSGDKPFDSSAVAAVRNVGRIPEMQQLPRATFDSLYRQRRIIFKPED

As a reminder, the Kd is a measure of binding affinity in units of concentration. High values mean lower affinity, low ones higher affinity. The koff is the first-order rate constant of dissociation. A low value points to a long-lived complex. As usually defined, the kon is a measure of how fast the partners come together. A low value points to slower complex formation. With “C-terminal domain of Pseudomonas aeruginosa TolA (TolA^224-347) (from UniProt P50600 224-347) (domain or fragment)”, in assay [1], the Kd is 250 µM, the koff amounted to 0.9 s⁻¹ and the kon amounted to 7400 M⁻¹ s⁻¹.

On to “P. aeruginosa TolA (residues 224-344) lacking its short C-terminal α-helix (from UniProt P50600 224-344) (domain or fragment)”, for which, in assay [1], the Kd turned out to be 86 µM, the koff amounted to 1.4 s⁻¹ and the kon stood at 23800 M⁻¹ s⁻¹.

By stoichiometry N is commonly meant the number of molecules, sites or subunits per partner or assembly. With EVRIVIDSGVDS-NH2 [E. coli TolB peptide (residues 22-33)], in assay [2], the Kd came to 44 µM, the dH was -3.79 kcal/mol and the stoichiometry N turned out to be 0.56.
